The values below come from patent US10704056B2, “Constitutively active ABA receptor mutants” (The Regents of the University of California, priority 2011, dated 2020).

Test [1] relates to Columbia seeds. As to the kind of experiment: Seed dormancy / germination assay of 35S-driven transgenic lines, stratified vs unstratified. It counts as in vivo, Arabidopsis. Particulars: 35S-driven overexpression in wild-type Columbia background. How it is done:
To investigate the effects of the PYL2^CA3 allele, we performed a number of physiological assays on wild-type and aba2-1 genotypes. Columbia (Col), 35S::PYL2, and 35S::PYL2^CA3 seed samples were divided into two portions; one portion was stratified on ⅓ MS plates for 6 days at 4° C. and the second portion was plated six days later ⅓ MS plates. Both samples were the transferred to room temperature (23° C.) and incubated in darkness. […] Each experiment was performed in triplicate and each point plotted represents the average of tests conducted using 40 to 70 seeds. […] Thus, overexpression of PYL2^CA3 activates the ABA-regulated seed dormancy pathway.
In order to assay dormancy of seeds for Columbia, 35S::GFP-PYL2, and 35S::GFP-PYL2^CA3 were divided into two portions and surface sterilized using chlorine gas (prepared in situ using bleach and HCl). One portion was stratified on ⅓ MS agar plates for 6 days at 4° C. in darkness and the second portion, which was maintained at room temperature, was seeded six days later on the ⅓ MS agar plates; both samples were transferred to a 23° C. light-tight growth chamber and germination scored at 24 hour periods. The homozygous 35S::GFP-PYL2 and 35S::GFP-[…] seeds used in these experiments were ˜5- and ˜6-months post-harvest respectively at the time of the experiment shown in FIG. 12.

In test [2] the test system is HAB1. As to the kind of experiment: In vitro PP2C phosphatase (pNPP) receptor activation assay with HAB1. Particulars: 600 nM GST-HAB1, 0-4800 nM receptor, no ABA. Type of test: biochemical, Arabidopsis. As for the experimental part: Recombinant receptor proteins were produced as follows: Coding sequences were cloned into pET28 yielding 6×HIS (SEQ ID NO:173) fusions proteins and transformed into E. coli expression strain BL21. […]. Cells were stored at −80° C. before purification. After thawing, cells were sonicated on ice five times for 30 sec with 30 sec resting intervals. A cleared lysate was obtained after centrifugation at 12,000×g for 10 min and applied to 1 ml of Ni-NTA column (Qiagen) and washed with 20 column volumes of Buffer A containing 30 mM imidazole. Bound protein was eluted with 10 ml of Buffer A with 250 mM imidazole. The elutate was dialyzed against TBS. The purified recombinant proteins were then used together with recombinant phosphatases in receptor assays. In these assays, receptor activity is indicated by inhibition of phosphatase activity, as inferred from initial reaction velocities for GST-HAB1 mediated hydrolysis of the synthetic phosphatase substrate pNPP. Reactions contained 600 nM GST-HAB1 and either 0, 600, 1200, 2400 or 4800 nM 6×His-PYR1 or variants in a reaction buffer consisting of 33 mM Tris-OAc, pH 7.9, 66 mM KOAc, 0.1% BSA, 25 mM Mn(OAc)2, 50 mM pNPP. To infer the level of receptor activation with respect to fully activated wild type receptor, control reactions were also conducted using saturating levels of (+)-ABA (10 μM), and 600 nM wild type PYR1 and HAB1. Immediately after mixing proteins and substrates, reactions were monitored for hydrolysis of pNPP at A405 at ˜10 second intervals over 20 minutes using a Wallac plate reader. Reaction progressions were plotted, initial velocities calculated and converted to specific activities using a standard curve for 4-nitrophenol made in the same buffer system volumes/plate reader used for enzymatic reaction measurements. The values shown are expressed as %-control phosphatase activity levels as measured in the absence of receptor protein. The average specific activity level of GST-HAB1 utilized in our experiments was 4000 μmol/min/mg, when assayed on the phosphatase substrate pNPP in the absence of PYR1 or other receptors, as described using the methods above.
Full length ABI1 and ABI2 were cloned into a modified pSUMO vector (LifeSensors Inc, USA) vector yielding 6×His-SUMO fusion proteins; GST-HAB1 was expressed and purified as previously described (Park et al., 2009). Mutant receptors were cloned into pET28 yielding 6×His-fusion proteins. […]. The cultures were pre-incubated 2 hours at 30° C. and, for PP2C expression, media was supplemented with 4 mM MnCl2 one hour after inoculation. After pre-incubation, IPTG was added (1 mM) and cells were induced at 15° C. for 16 hours, after which they were collected by centrifugation, resuspended in 5 ml Buffer A (50 mM NaH2PO4, 300 mM NaCl) +10 mM imidazole, pH 8.0 and stored at −80° C. For purification, cells were thawed, sonicated on ice (60 seconds) and a cleared lysate was then applied a 1 ml-bed volume column of Ni-NTA (Qiagen, USA), washed with 20 column volumes of Buffer A+30 mM imidazole and bound protein eluted with 1 ml of Buffer A+250 mM imidazole. For receptors, the elutate was dialyzed against TBS and for PP2Cs, fusion proteins were desalted by passage over a Sephadex G50 column.
The purified receptors and phosphatases were then used in receptor assays where receptor activation is indicated by inhibition of phosphatase activity, as inferred from initial reaction velocities for PP2C-mediated hydrolysis of the synthetic phosphatase substrate pNPP in reactions containing 600 nM PP2C and either 0, 600, 1200, 2400 or 4800 nM receptor. The receptor assay buffer consisted of 33 mM Tris-OAc, pH 7.9, 66 mM KOAc, 0.1% BSA, 25 mM Mn(OAc)2, 0.1%13-ME and 50 mM pNPP. Immediately after mixing proteins and substrates, reactions were monitored for hydrolysis of pNPP at A405 at ˜2 minutes intervals using a Wallac plate reader. […]

B1: PYL2^CA3: PYL2 mutant (H65P, V87F, F165V); expressed in plants as 35S-driven GFP fusion (protein)
chain: HHHHHHMSSSPAVKGLTDEEQKTLEPVIKTYHQFEPDPTTCTSLITQRIHAPASVVWPLIRRFDNPERYKPFVKRCRLISGDGDVGSVREVTFISGLPASTSTERLEFVDDDHRVLSFRVVGGEHRLKNYKSVTSVNEFLNQDSGKVYTVVLESYTVDIPEGNTEEDTKMVVDTVVKLNLQKLGVAATSAPMHDDE
As to B1, the “seed hyperdormancy (stratification dependent germination)” value in test [1] is listed as “induces a state of hyperdormancy in seeds”. Besides, the “basal receptor activity (inhibition of HAB1 phosphatase activity in the absence of ABA)” value in test [2] was “highly activated in the absence of ABA”.
